Experimental findings from patent publication US20230303994 are described below.

To fix the notation:
B1: trypsin variant SEQ ID NO: 53 (protein)
chain: IVGGYTCAANSIPYQVSLNSGSHRCGGSLINSQWVVSAAHCYKPRIQVRLGEHNIDVLEGNEQFINAAKIITHPNFNGNTLDNDIMLIKLSSPATLNSRVATVSLPRSCAAAGTECLISGWGNTKSSGSSYPSLLQCLKAPVLSDSSCKSSYPGQITGNMICVGFLEGGKDACQGDSGGPVVCNGQLQGIVSSGYGCAQKNKPGVYTKVCNYVNWIQQTIAAN
B2: trypsin variant SEQ ID NO: 73 (protein)
chain: B1 chain with P44S, G78A
B3: trypsin variant SEQ ID NO: 74 (protein)
chain: B1 chain with P44S, G78P
B4: trypsin variant SEQ ID NO: 80 (protein)
chain: B1 chain with P44S, D56H, G78P, R99H, R107T, K125S, Y131M
B5: trypsin variant SEQ ID NO: 57 (protein)
chain: B1 chain with P44S, D56H
B6: trypsin variant SEQ ID NO: 79 (protein)
chain: B1 chain with D56H, G78P, R99H, K125A, Y131M
B7: trypsin variant SEQ ID NO: 78 (protein)
chain: B1 chain with P44S, D56H, G78P, R99H, R107T, K125C
B8: trypsin variant SEQ ID NO: 56 (protein)
chain: B1 chain with P44S, D56N
B9: trypsin variant SEQ ID NO: 9 (protein)
chain: B1 chain with P44S, R99Y
B10: trypsin variant SEQ ID NO: 77 (protein)
chain: B1 chain with D56H, R99H, R107T, K125C, Y131M
B11: trypsin variant SEQ ID NO: 46 (protein)
chain: B1 chain with R24A, P44S
B12: trypsin variant SEQ ID NO: 27 (protein)
chain: B1 chain with P44S, K170N
B13: trypsin variant SEQ ID NO: 40 (protein)
chain: B1 chain with P44S, Y131E
B14: trypsin variant SEQ ID NO: 31 (protein)
chain: B1 chain with R24Q, P44S
B15: trypsin variant SEQ ID NO: 29 (protein)
chain: B1 chain with R24L, P44S
B16: trypsin variant SEQ ID NO: 48 (protein)
chain: B1 chain with R24M, P44S
B17: trypsin variant SEQ ID NO: 32 (protein)
chain: B1 chain with P44S
B18: trypsin variant SEQ ID NO: 39 (protein)
chain: B1 chain with P44S, Y131N
B19: trypsin variant SEQ ID NO: 6 (protein)
chain: B1 chain with P44S, R99F
B20: trypsin variant SEQ ID NO: 45 (protein)
chain: B1 chain with P44S, A172C
B21: trypsin variant SEQ ID NO: 43 (protein)
chain: B1 chain with P44S, A172T
B22: trypsin variant SEQ ID NO: 38 (protein)
chain: B1 chain with P44S, Y131C
B23: trypsin variant SEQ ID NO: 42 (protein)
chain: B1 chain with P44S
B24: trypsin variant SEQ ID NO: 28 (protein)
chain: B1 chain with R24V, P44S
B25: trypsin variant SEQ ID NO: 35 (protein)
chain: B1 chain with P44S, Y131L
B26: trypsin variant SEQ ID NO: 51 (protein)
chain: B1 chain with R24K, P44S
B27: trypsin variant SEQ ID NO: 44 (protein)
chain: B1 chain with P44S, A172S
B28: trypsin variant SEQ ID NO: 26 (protein)
chain: B1 chain with P44S, K170G
B29: trypsin variant SEQ ID NO: 33 (protein)
chain: B1 chain with P44S, R107T
B30: trypsin variant SEQ ID NO: 34 (protein)
chain: B1 chain with P44S, Y131A
B31: trypsin variant SEQ ID NO: 37 (protein)
chain: B1 chain with P44S, Y131T
B32: trypsin variant SEQ ID NO: 30 (protein)
chain: B1 chain with R24S, P44S
B33: trypsin variant SEQ ID NO: 47 (protein)
chain: B1 chain with R24I, P44S
B34: trypsin variant SEQ ID NO: 49 (protein)
chain: B1 chain with R24T, P44S
B35: trypsin variant SEQ ID NO: 5 (protein)
chain: B1 chain with P44S, R99L
B36: trypsin variant SEQ ID NO: 50 (protein)
chain: B1 chain with R24N, P44S

Substitutions are numbered along the chain they refer to.

One data set addresses pre-pro-insulin glargine.
Take B1: the Purity Insulin Glargine was 81.3 area %, the Yield is more than 80%, the desArg is less than 0.5 area % and the desThr is 2.1 area %.

The protein B2 yielded a Purity Insulin Glargine of 83 area %, a Yield of more than 90%, a desArg of less than 0.5 area % and a desThr of 2.2 area %.

For the protein B3, the Purity Insulin Glargine came to 82.4 area %, the Yield is more than 80%, the desArg was less than 0.5 area % and the desThr was 2.1 area %.

The protein B4 had a Purity Insulin Glargine of 90.1 area %, a Yield of more than 90%, a desArg of 0.9 area % and a desThr of 0.5 area %.

As for B5, the Purity Insulin Glargine came out at 87.5 area %, the Yield was more than 90%, the desArg is less than 0.5 area % and the desThr was found to be 2.3 area %.

B6 yielded a Purity Insulin Glargine of 87.8 area %, a Yield of more than 90%, a desArg of 0.7 area % and a desThr of 0.3 area %.

On to B7, for which the Purity Insulin Glargine came out at 85.1 area %, the Yield was more than 90%, the desArg came to 0.5 area % and the desThr came out at 1.6 area %.

B8 showed a Purity Insulin Glargine of 85.3 area %, a Yield of more than 90%, a desArg of less than 0.5 area % and a desThr of 2 area %.

B9 returned a Purity Insulin Glargine of 85.2 area %, a Yield of more than 90%, a desArg of less than 0.5 area % and a desThr of 3.6 area %.

On to B10, for which the Purity Insulin Glargine was 88.2 area %, the Yield was more than 90%, the desArg worked out at 0.5 area % and the desThr amounted to 1.6 area %.

A further data set concerns the target pre-pro-human insulin.
Consider B1, for which the “Activity PPI cleavage” value is “yes” and the Selectivity is given as more than 90%.

For the protein B11, the “Activity PPI cleavage” value is “yes” and the Selectivity is on record as more than 70%.

For the protein B12, the “Activity PPI cleavage” value is “yes” and the Selectivity is more than 80%.

On to B2, for which the “Activity PPI cleavage” value is “yes” and the Selectivity is more than 90%.

For B3, the “Activity PPI cleavage” value is “yes” and the Selectivity is reported as more than 90%.

Take B4: the “Activity PPI cleavage” value is given as “yes” and the Selectivity was more than 90%.

Turning to B13, the “Activity PPI cleavage” value is recorded as “yes” and the Selectivity was more than 80%.

For B14, the “Activity PPI cleavage” value was “yes” and the Selectivity is more than 62.1%.

Turning to B15, the “Activity PPI cleavage” value is recorded as “yes” and the Selectivity is listed as more than 90%.

As for B16, the “Activity PPI cleavage” value was “yes” and the Selectivity is given as more than 80%.

B17: the “Activity PPI cleavage” value is “yes” and the Selectivity was more than 90%.

B18: the “Activity PPI cleavage” value is given as “yes” and the Selectivity was more than 90%.

For B19, the “Activity PPI cleavage” value is reported as “yes” and the Selectivity is more than 90%.

In the case of B5, the “Activity PPI cleavage” value is “yes” and the Selectivity is more than 90%.

As to B20, the “Activity PPI cleavage” value was “yes” and the Selectivity is listed as more than 65%.

B6: the “Activity PPI cleavage” value is recorded as “yes” and the Selectivity is more than 90%.

With B7, the “Activity PPI cleavage” value was “yes” and the Selectivity is on record as more than 80%.

Consider B21, for which the “Activity PPI cleavage” value is “yes” and the Selectivity is listed as more than 80%.

For the protein B22, the “Activity PPI cleavage” value is “yes” and the Selectivity is reported as more than 80%.

For B23, the “Activity PPI cleavage” value was “yes” and the Selectivity is reported as more than 90%.

Regarding B24, the “Activity PPI cleavage” value is “yes” and the Selectivity is listed as more than 90%.

Take B25: the “Activity PPI cleavage” value was “yes” and the Selectivity is on record as more than 90%.

Turning to B26, the “Activity PPI cleavage” value is on record as “yes” and the Selectivity is more than 70%.

As to B27, the “Activity PPI cleavage” value is “yes” and the Selectivity was more than 80%.

Turning to B8, the “Activity PPI cleavage” value is recorded as “yes” and the Selectivity was more than 90%.

With B9, the “Activity PPI cleavage” value is “yes” and the Selectivity was more than 90%.

For B28, the “Activity PPI cleavage” value was “yes” and the Selectivity is more than 80%.

As to B29, the “Activity PPI cleavage” value is reported as “yes” and the Selectivity is given as more than 90%.

As for B30, the “Activity PPI cleavage” value is “yes” and the Selectivity is recorded as more than 90%.

Turning to B31, the “Activity PPI cleavage” value was “yes” and the Selectivity is more than 90%.

Take B10: the “Activity PPI cleavage” value is “yes” and the Selectivity is on record as more than 90%.

In the case of B32, the “Activity PPI cleavage” value was “yes” and the Selectivity is more than 70%.

Consider B33, for which the “Activity PPI cleavage” value is “yes” and the Selectivity was more than 90%.

For B34, the “Activity PPI cleavage” value is “yes” and the Selectivity is recorded as more than 80%.

As to B35, the “Activity PPI cleavage” value is recorded as “yes” and the Selectivity was more than 90%.

As to B36, the “Activity PPI cleavage” value was “yes” and the Selectivity is listed as more than 65%.
